Test results taken from US20240141038A1 (SHANGHAI QILU PHARMACEUTICAL RESEARCH AND DEVELOPMENT CENTRE, published 2024).

Key:
[1] = biological target: T1, Cynomolgus monkey NKp46 for immunization, screening, and testing (Kactus, NKP-CM146) (cynomolgus monkey, UniProt Q95JB9 22-254); experiment: ELISA, coated antigen, VHH supernatant, anti-Myc HRP
T1 construct: Bought protein; also called monkey NKp46 antigen protein; cynomolgus monkey NKp46 antigen
Protocol: (§1) In order to obtain positive antibodies that can cross-bind to human NKp46 and cynomolgus monkey NKp46, the above libraries were amplified and added into M13K07 helper phage and assembled into bacteriophages. 1×10¹² pfu of immune camel antibody library and immune alpaca antibody library were added thereto, and the phages were incubated with biotinylated human NKp46 protein (8 μg/mL) bound to magnetic beads for 1 h at room temperature. After washing off the unbound bacteriophages with 0.05% PBST, the phages specifically bound to NKp46 were eluted with […] triethylamine, and after gradient dilution of the bacteriophages above, E. coli SS320 in the logarithmic growth phase were infected. After being cultured overnight at 37° C. on plates containing ampicillin, single-clone was picked for IPTG-induced expression, and the supernatant was used for ELISA assay. ELISA plates were coated with […] human NKp46 antigen or cynomolgus monkey NKp46 antigen overnight at 4° C., then washed 3 times with 0.05% PBST and blocked with 5% skim milk at room temperature for 1 h, and washed 3 times with 0.05% PBST. Then 30 µL of induced supernatant was then added into per well, medium were added to negative control wells, the ELISA plates were incubated at room temperature for 1 h, and finally detected with anti-Myc HRP (VHH with his and c-Myc labels were expressed by the induction of IPTG. Sequence clones that had OD450 values of greater than 1.0 for binding to human NKp46 and cynomolgus monkey NKp46 as determined by ELISA, and of which the ratio of OD450 values to that of negative control were greater than 3 were sequenced, thereby obtaining amino acid sequences of 30 variable regions of heavy chain antibodies disclosed in the present disclosure, as shown in Table 2.

[2] = biological target: T2, Human NKp46 antigen for immunization, screening, and testing (Kactus, NKP-HM146) (human, UniProt O76036 22-255); experiment: as above
T2 construct: Bought protein; also called human NKp46 antigen protein; human NKp46 protein
Protocol: as §1

T1 sequence (Q95JB9 other isoform, or with tags, fused parts or gaps limits assumed): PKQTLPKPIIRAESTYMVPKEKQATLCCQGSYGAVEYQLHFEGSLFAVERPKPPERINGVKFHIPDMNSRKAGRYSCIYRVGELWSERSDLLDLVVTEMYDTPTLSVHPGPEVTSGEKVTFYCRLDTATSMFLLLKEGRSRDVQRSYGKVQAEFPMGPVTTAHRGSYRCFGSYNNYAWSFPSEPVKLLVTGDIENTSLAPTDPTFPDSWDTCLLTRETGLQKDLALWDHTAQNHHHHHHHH
T2 sequence (O76036 other isoform, or with tags, fused parts or gaps limits assumed): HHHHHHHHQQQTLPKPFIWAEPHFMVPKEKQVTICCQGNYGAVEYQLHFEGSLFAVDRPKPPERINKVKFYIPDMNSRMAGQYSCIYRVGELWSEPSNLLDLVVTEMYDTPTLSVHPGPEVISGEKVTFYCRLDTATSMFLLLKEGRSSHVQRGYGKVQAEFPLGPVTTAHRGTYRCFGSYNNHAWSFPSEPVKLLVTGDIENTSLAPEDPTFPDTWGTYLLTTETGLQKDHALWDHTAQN

Row | Binder | OD450 [1] | ratio of OD450 to negative control [1] | OD450 [2] | ratio of OD450 to negative control [2]
1 | NKp46-PA15 VHH (his and c-Myc labels) (VHH, IPTG-induced E. coli supernatant used in the screening ELISA; also called NKp46-PA15 clone supernatant; not shown: his and c-Myc labels) VHH: QVQLVESGGGLVQAGDSLRVSCAASGRTFSTYAMGWFRQAPGKEREFVAASSRDGTTTYYADSVKGRFTISRDNAKNTVYLQMNSLKPEDTAVYYCAASRPLSTTQVGIASAWYEYWGQGTQVTVSS | > 1 | > 3 | > 1 | > 3
2 | NKp46-PA19 VHH (his and c-Myc labels) (VHH, IPTG-induced E. coli supernatant used in the screening ELISA; also called NKp46-PA19 clone supernatant; not shown: his and c-Myc labels) VHH: QVQLVESGGGLVQPGGSLRLACAASGRTFSTYAMGWFRQAPGKEREFVAAISRNGGTTYYADSVKGRFTISRDNAKNTVYLQMNSLKPEDTAVYYCAASRPLSNTQVGVASAWYEFWGQGTLVTVSS | > 1 | > 3 | > 1 | > 3
3 | NKp46-PA11 VHH (his and c-Myc labels) (VHH, IPTG-induced E. coli supernatant used in the screening ELISA; also called NKp46-PA11 clone supernatant; not shown: his and c-Myc labels) VHH: DVQLVESGGGLVQAGGSLRLSCAASGHTESWYRMGWFRQAPGKGREVVGRISGSPGILYYAGSVKGRFTISRDNAKNTLYLQMTNLKPEDTARYYCAADRTGATWDYWGQGTQVTVSS | > 1 | > 3 | > 1 | > 3
4 | NKp46-PA24 VHH (his and c-Myc labels) (VHH, IPTG-induced E. coli supernatant used in the screening ELISA; also called NKp46-PA24 clone supernatant; not shown: his and c-Myc labels) VHH: QVQLVESGGGQVQAGGSLRLSCVASGRTYSIYGMGWFRQAPGKEREVVAAINWSSGHTYYADSVKGRFTISKDNAKNTHYLQMNSLKPEDTAVYYCAADSIYGLSFTVKDYDYWGQGTLVTVSS | > 1 | > 3 | > 1 | > 3
5 | NKp46-PA2 VHH (his and c-Myc labels) (VHH, IPTG-induced E. coli supernatant used in the screening ELISA; also called NKp46-PA2 clone supernatant; not shown: his and c-Myc labels) VHH: DVQLVESGGGLVQAGGSLRLSCAASGRTLSSYAMGWFRQAPGLEREFVAAISRISGDTYSPDSVKGRFTISRDNAKNTLYLQMNSLKPEDTAVYYCAASATPSATNIYTNQYAYGDWGQGTQVTVSS | > 1 | > 3 | > 1 | > 3
6 | NKp46-PA3 VHH (his and c-Myc labels) (VHH, IPTG-induced E. coli supernatant used in the screening ELISA; also called NKp46-PA3 clone supernatant; not shown: his and c-Myc labels) VHH: DVQLVESGGGLVQAGGSLRLSCAASGRTFNTIHWFRQAPGKEREFVARIWWIERTTFYAASVKGRFTISRDNAKNMVYLQMNSLKPEDTAVYYCAADARYTGSRRWESDYWGQGTQVTVSS | > 1 | > 3 | > 1 | > 3

The remaining lines, values ahead:

Row | OD450 [1] | ratio of OD450 to negative control [1] | OD450 [2] | ratio of OD450 to negative control [2] | Binder
7 | > 1 | > 3 | > 1 | > 3 | NKp46-PC2 VHH (his and c-Myc labels) (VHH, IPTG-induced E. coli supernatant used in the screening ELISA; also called NKp46-PC2 clone supernatant; not shown: his and c-Myc labels) VHH: QVQLVESGGGLVQPGGSLRLSCAASGFAFSNYNMFWVRQAPGEGFEWISVINRGGDTADYAASVKGRFTISRDNAKNTLYLQMNSLKTEDTAVYYCARDPLGTTRGQGTLVTVSS
8 | > 1 | > 3 | > 1 | > 3 | NKp46-PA27 VHH (his and c-Myc labels) (VHH, IPTG-induced E. coli supernatant used in the screening ELISA; also called NKp46-PA27 clone supernatant; not shown: his and c-Myc labels) VHH: DVQLVESGGGLVQAGASLRLSCAASGRTESWYRMGWFRQAPGKGREVVARISGDTNIKYYAGSVKGRFTISRDNAKNTLYLQMTNLKPEDTARYYCAADRTGATWDYWGQGTQVTVSS
9 | > 1 | > 3 | > 1 | > 3 | NKp46-PA29 VHH (his and c-Myc labels) (VHH, IPTG-induced E. coli supernatant used in the screening ELISA; also called NKp46-PA29 clone supernatant; not shown: his and c-Myc labels) VHH: QVQLVESGGGWVQPGGSLRLSCAASGRTYSIYGMGWFRQAPGKEREIVAAINWNSGHTYYADSVKGRFTISRDNAKNTHYLQMNSLKPEDTAVYYCAADSIIGLSFTVKDYDYWGQGTQVTVSS
10 | > 1 | > 3 | > 1 | > 3 | NKp46-PA22 VHH (his and c-Myc labels) (VHH, IPTG-induced E. coli supernatant used in the screening ELISA; also called NKp46-PA22 clone supernatant; not shown: his and c-Myc labels) VHH: QVQLVESGGGLVQAGGSLRLSCTASGRTFETLHWFRQAPGKEREFVARIWWIGGATFYADSVKGRFTISRDNAKNMVYLQMNSLKPEDTAIYYCAADARYTSNRRWESDYWGQGTQVTVSS
